Experimental data taken from PMC11255897.

Molecular target: Ras binding domain (RBD) of the yeast Ras effector Byr2 fused to GST
Assay: pull-down with GST-Byr2(RBD), Flag immunoblot densitometry
Settings: read off a plot; for percent of parent (% of RasC(WT)-CA binding) / percent of parent (% of wild-type RasC peak (10 s cAMP)): parent: est. 100; for percent of parent (% of wild-type RasC peak (10 s cAMP)): 10 s cAMP stimulation; for response (% of wild-type RasC peak (10 s cAMP)): basal (before cAMP stimulation), parent: est. 20

Substance	percent of parent (% of RasC(WT)-CA binding)	percent of parent (% of wild-type RasC peak (10 s cAMP))	response (% of wild-type RasC peak (10 s cAMP))	response (% of RasC(WT)-CA binding) (parent: est. 15)
constitutively active (CA) RasC-Q62L mutant, Flag-tagged (from UniProt P32253) A31D	240			
constitutively active (CA) RasC-Q62L mutant, Flag-tagged (from UniProt P32253) A31K	290			
constitutively active (CA) RasC-Q62L mutant, Flag-tagged (from UniProt P32253) A31L	200			
constitutively active (CA) RasC-Q62L mutant, Flag-tagged (from UniProt P32253) K138A; R164A; K167A	180			
constitutively active (CA) RasC-Q62L mutant, Flag-tagged (from UniProt P32253) K182A; K183A; R184A	210			
constitutively active (CA) RasC-Q62L mutant, Flag-tagged (from UniProt P32253) Y41A	12			
wild-type Flag-RasC (from UniProt P32253) A31D		42	27	
wild-type Flag-RasC (from UniProt P32253) A31K		130	28	
wild-type Flag-RasC (from UniProt P32253) A31L		170	35	
wild-type Flag-RasC (from UniProt P32253) C186A		2	2	
wild-type Flag-RasC (from UniProt P32253) E38A		10	5	
wild-type Flag-RasC (from UniProt P32253) E38A; N39A; S40A		18	19	
wild-type Flag-RasC (from UniProt P32253) K138A; R164A; K167A		100		
wild-type Flag-RasC (from UniProt P32253) K182A; K183A; R184A		17	8	
wild-type Flag-RasC (from UniProt P32253) Q62L				100
wild-type Flag-RasC (from UniProt P32253) T36A		8	11	
wild-type Flag-RasC (from UniProt P32253) Y41A		23		
